From patent US20250000936A1, “TREATMENT OF GEOGRAPHIC ATROPHY” (Apellis Pharmaceuticals, Inc., priority 2021, published 2025)
“And” between values parts separate entries of the source, which are not always exact repeats. Equal entries are not always repeated. Where two headings read alike, the source gives them in different places.

Experiments:
patients with GA = conditions: FILLY, month 12, cited from earlier work
[1] = tested on: patients with geographic atrophy (GA) secondary to age-related macular degeneration (AMD); assay: OAKS Phase 3 study: safety
Experimental: All randomized subjects returned every month to the clinical site for assessments and additional pegcetacoplan or sham injections according to their randomization scheme until Month 12. From Month 12 onwards, subjects return to the clinical site based on their randomized treatment schedule (monthly or EOM) and follow the treatment regimen and assessments outlined in the Visit Schedule until Month 24. Safety was assessed throughout the study by a number of evaluations including: monitoring of AEs, preinjection and postinjection monitoring, blood and urine samples collected, physical examination, vital signs, and follow-up phone calls. Blood samples were also be collected for anti-therapeutic antibodies, genotyping, and clinical repository (if the subject consented to this portion).
The Safety set consisted of all subjects randomized who received at least one injection of pegcetacoplan or sham. Subjects were analyzed according to the actual treatment received. […] This population was used for all safety analyses.

[2] = PEOM (every other month), 12 months
[3] = PEOM (every other month), 18 months
[4] = PEOM (every other month), N=212

## Poly(oxy-1,2-ethanediyl), α-hydro-ω-hydroxy-, 15,15′-diester with N-acetyl-L-isoleucyl-L-cysteinyl-L-valyl-1-methyl-L-tryptophyl-L-glutaminyl-L-α-aspartyl-L-tryptophylglycyl-L-alanyl-L-histidyl-L-arginyl-L-cysteinyl-L-threonyl-2-[2-(2-aminoethoxy) ethoxy]acetyl-N^6-carboxy-L-lysinamide cyclic (2->12)-(disulfide) [pegcetacoplan]
Patients with GA; every other month, p=0.067
  reduction in change from baseline in square root GA lesion size vs sham: 20%
Patients with GA; monthly, p=0.008
  reduction in change from baseline in square root GA lesion size vs sham: 29%
[1]; [2]
  All TEAEs, Total events, M: 721
  All TEAEs, patients: 160 (75.5%) n (%)
  Cases of MNV (FA) detected by reading center but not reported by Investigator as AE: 3
  Non-ocular TEAEs, Patients: 127 (59 9%) n (%)
  Non-ocular TEAEs, events M: 412
  Ocular TEAE in study eye Conjunctival haemorrhage, events M: 16
  Ocular TEAE in study eye Conjunctival haemorrhage, patients: 13 (6.1%) n (%)
  Ocular TEAE in study eye Eye Pain, events M: 14
  Ocular TEAE in study eye Eye Pain, patients: 12 (5.7%) n (%)
  Ocular TEAE in study eye Vitreous floaters, events M: 20
  Ocular TEAE in study eye Vitreous floaters, patients: 15 (7.1%) n (%)
  Ocular TEAEs in study eye, Patients: 97 (45.8%) n (%) and 97 (45.8) n (%)
  Ocular TEAEs in study eye, events M: 208
  Serious ocular TEAE Endophthalmitis, events M: 3
  Serious ocular TEAE Endophthalmitis, patients: 3 (1.4%) n (%)
  Serious ocular TEAE Macular hole, patients: 0 n (%)
  Serious ocular TEAE Optic ischemic neuropathy, patients: 0 n (%)
  Serious ocular TEAE Papilledema, patients: 0 n (%)
  Serious ocular TEAE Retinal detachment, events M: 1
  Serious ocular TEAE Retinal detachment, patients: 1 (0.5%) n (%)
  Serious ocular TEAEs in the study eye, events M: 4
  Serious ocular TEAEs in the study eye, patients: 4 (1.9%) n (%)
  Sum of investigator-determined eAMD and reading center cases not reported by investigators: (6.1%)
[1]; PEOM (every other month), 12 months, count
  Sum of investigator-determined eAMD and reading center cases not reported by investigators: 13
[1]; [3]
  All TEAEs, Total events, M: 965
  All TEAEs, patients: 177 (83.5%) n (%)
  Non-ocular TEAEs, M: 567
  Non-ocular TEAEs, Patients: 158 (74.5%) n (%)
  Ocular TEAEs in study eye, M: 270
  Ocular TEAEs in study eye, Patients: 114 (53.8%) n (%)
[1]; [4]
  Discontinued study prior to Month 12, reason Adverse Event: 5 (2.4%) n (%)
  Discontinued study prior to Month 12, reason Death: 3 (1.4%) n (%)
  Discontinued study prior to Month 18, reason Adverse event: 4 (1.9%) n (%)
  Discontinued study prior to Month 18, reason Death: 7 (3.3%) n (%)
[1]; PEOM (every other month), through 18 months, 173 patients without baseline fellow eye CNV
  Patients with new onset fellow eye eAMD: 5 (2.9%) n (%)
[1]; PM (monthly), 12 months
  All TEAEs, Total events, M: 751
  All TEAEs, patients: 170 (79.8%) n (%)
  Cases of MNV (FA) detected by reading center but not reported by Investigator as AE: 2
  Non-ocular TEAEs, Patients: 136 (63.8%) n (%)
  Non-ocular TEAEs, events M: 390
  Ocular TEAE in study eye Conjunctival haemorrhage, events M: 30
  Ocular TEAE in study eye Conjunctival haemorrhage, patients: 18 (8.5%) n (%)
  Ocular TEAE in study eye Eye Pain, events M: 17
  Ocular TEAE in study eye Eye Pain, patients: 15 (7.0%) n (%)
  Ocular TEAE in study eye Vitreous floaters, events M: 10
  Ocular TEAE in study eye Vitreous floaters, patients: 9 (4.2%) n (%)
  Ocular TEAEs in study eye, Patients: 108 (50.7%) n (%)
  Ocular TEAEs in study eye, events M: 256
  Serious ocular TEAE Dry AMD, patients: 0 n (%)
  Serious ocular TEAE Endophthalmitis, events M: 3
  Serious ocular TEAE Endophthalmitis, patients: 1 (0.5%) n (%)
  Serious ocular TEAE Macular hole, patients: 0 n (%)
  Serious ocular TEAE Optic ischemic neuropathy, events M: 3
